Measured values taken from the supplement of paper PMC9112550, “Optimization of the antimicrobial peptide Bac7 by deep mutational scanning” (BMC Biology, 2022).

Tested on: Escherichia coli TOP10
Experiment: shrunken log2 fold change of peptide-encoding DNA abundance (4.5 h post-induction vs induction); higher = less antimicrobial activity (less host growth inhibition)
Details: time post-induction: 4.5 h; library: site-saturation at positions 5, 18, 19, 20
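Also: peptides expressed intracellularly from a pBAD plasmid library in pooled LB shake-flask culture, induced with 0.3% L-arabinose, DNA abundance read by NGS, three biological replicates, DESeq2 with apeglm shrinkage.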

Sequence	shrunken log2 fold change
RRIRVRPPRLPRPRPRPYPPPRP	-0.103
RRIRKRPPRLPRPRPRPKYFPRP	-0.098
RRIRSRPPRLPRPRPRPWAFPRP	-0.072
RRIRPRPPRLPRPRPRPLGMPRP	-0.0753
RRIRHRPPRLPRPRPRPFPPPRP	-0.228
RRIRPRPPRLPRPRPRPETAPRP	0.396
RRIRQRPPRLPRPRPRPWWRPRP	0.0847
RRIRLRPPRLPRPRPRPWKQPRP	-0.0134
RRIRMRPPRLPRPRPRPLDIPRP	-0.0561
RRIRTRPPRLPRPRPRPYPQPRP	-0.14
RRIRLRPPRLPRPRPRPCGSPRP	-0.105
RRIRMRPPRLPRPRPRPMSEPRP	0.102
RRIRERPPRLPRPRPRPWWIPRP	-0.021
RRIRFRPPRLPRPRPRPCVNPRP	-0.121
RRIRYRPPRLPRPRPRPEFWPRP	-0.0503
RRIRARPPRLPRPRPRPCCWPRP	0.245
RRIRTRPPRLPRPRPRPNGQPRP	0.149
RRIRTRPPRLPRPRPRPDDHPRP	-0.00476
RRIRPRPPRLPRPRPRPEIRPRP	0.0106
RRIRLRPPRLPRPRPRPNQGPRP	-0.148
RRIRKRPPRLPRPRPRPEMEPRP	3.59
RRIRQRPPRLPRPRPRPNACPRP	-0.000684
RRIRNRPPRLPRPRPRPPMRPRP	1.05
RRIRGRPPRLPRPRPRPIMKPRP	0.227
RRIRFRPPRLPRPRPRPSEQPRP	-0.217

Sequence	shrunken log2 fold change
RRIRKRPPRLPRPRPRPYLNPRP	-0.362
RRIRRRPPRLPRPRPRPAVCPRP	0.66
RRIRIRPPRLPRPRPRPVGTPRP	-0.126
RRIRTRPPRLPRPRPRPSWDPRP	-0.262
RRIRRRPPRLPRPRPRPVKEPRP	-0.128
RRIRSRPPRLPRPRPRPGQNPRP	0.323
RRIRMRPPRLPRPRPRPGDDPRP	1.96
RRIRGRPPRLPRPRPRPVCSPRP	0.613
RRIRIRPPRLPRPRPRPCIPPRP	-0.307
RRIRCRPPRLPRPRPRPGNTPRP	-0.205
RRIRCRPPRLPRPRPRPGREPRP	2.28
RRIRARPPRLPRPRPRPSENPRP	0.182
RRIRERPPRLPRPRPRPQKHPRP	-0.608
RRIRCRPPRLPRPRPRPDTMPRP	0.00262
RRIRERPPRLPRPRPRPTTSPRP	-0.147
RRIRARPPRLPRPRPRPYWNPRP	-0.566
RRIRMRPPRLPRPRPRPFVWPRP	0.246
RRIRGRPPRLPRPRPRPNCLPRP	0.191
RRIRTRPPRLPRPRPRPNKEPRP	-0.00295
RRIRGRPPRLPRPRPRPGFDPRP	0.97
RRIRDRPPRLPRPRPRPKESPRP	0.277
RRIRNRPPRLPRPRPRPSRHPRP	-0.061
RRIRLRPPRLPRPRPRPDPNPRP	0.168
RRIRRRPPRLPRPRPRPCAIPRP	3.08
RRIRTRPPRLPRPRPRPIQTPRP	-0.0398

Sequence	shrunken log2 fold change
RRIRNRPPRLPRPRPRPFPWPRP	-0.084
RRIRQRPPRLPRPRPRPWLTPRP	-0.13
RRIRGRPPRLPRPRPRPANLPRP	0.166
RRIRPRPPRLPRPRPRPYAMPRP	-0.265
RRIRGRPPRLPRPRPRPYHLPRP	-1.27
RRIRPRPPRLPRPRPRPMGIPRP	0.21
RRIRIRPPRLPRPRPRPCKMPRP	-0.0175
RRIRERPPRLPRPRPRPPKMPRP	-0.212
RRIRRRPPRLPRPRPRPHAEPRP	0.317
RRIRGRPPRLPRPRPRPGYPPRP	0.115
RRIRERPPRLPRPRPRPMHFPRP	-0.163
RRIRTRPPRLPRPRPRPRFIPRP	-0.806
RRIRCRPPRLPRPRPRPCWMPRP	-0.404
RRIRSRPPRLPRPRPRPIMGPRP	-0.0258
RRIRLRPPRLPRPRPRPTIWPRP	0.203
RRIRGRPPRLPRPRPRPNFCPRP	0.362
RRIRIRPPRLPRPRPRPELKPRP	0.224
RRIRYRPPRLPRPRPRPPCFPRP	-0.242
RRIRTRPPRLPRPRPRPGQWPRP	0.0938
RRIRPRPPRLPRPRPRPCTFPRP	-0.00278
RRIRHRPPRLPRPRPRPLRQPRP	-0.0125
RRIRCRPPRLPRPRPRPRKKPRP	-0.125
RRIRVRPPRLPRPRPRPTNHPRP	-0.384
RRIRRRPPRLPRPRPRPTTCPRP	0.379
RRIRRRPPRLPRPRPRPGSNPRP	0.0402

Sequence	shrunken log2 fold change
RRIRDRPPRLPRPRPRPLFPPRP	-0.116
RRIRDRPPRLPRPRPRPHDQPRP	-0.0965
RRIRARPPRLPRPRPRPEDAPRP	0.894
RRIRQRPPRLPRPRPRPQLKPRP	-0.0311
RRIRMRPPRLPRPRPRPIIQPRP	-0.402
RRIRPRPPRLPRPRPRPTMMPRP	-0.216
RRIRERPPRLPRPRPRPNGQPRP	0.0342
RRIRMRPPRLPRPRPRPHVIPRP	0.00402
RRIRYRPPRLPRPRPRPIMCPRP	-0.197
RRIRERPPRLPRPRPRPPMRPRP	0.779
RRIRSRPPRLPRPRPRPRYVPRP	-0.597
RRIRIRPPRLPRPRPRPWNIPRP	-0.0297
RRIRVRPPRLPRPRPRPTGSPRP	-0.133
RRIRNRPPRLPRPRPRPWCNPRP	-0.507
RRIRERPPRLPRPRPRPACHPRP	-0.0945
RRIRQRPPRLPRPRPRPYNLPRP	-0.00751
RRIRLRPPRLPRPRPRPWNAPRP	-0.249
RRIRNRPPRLPRPRPRPNGMPRP	-0.00904
RRIRKRPPRLPRPRPRPGLWPRP	0.66
RRIRTRPPRLPRPRPRPSHYPRP	-1.32
RRIRDRPPRLPRPRPRPPGHPRP	0.0994
RRIRPRPPRLPRPRPRPTYCPRP	0.00402
RRIRWRPPRLPRPRPRPATIPRP	-0.0366
RRIRFRPPRLPRPRPRPTMHPRP	-0.138
RRIRSRPPRLPRPRPRPKAFPRP	-0.0206

Sequence	shrunken log2 fold change
RRIRKRPPRLPRPRPRPGLAPRP	0.977
RRIRGRPPRLPRPRPRPLPFPRP	-0.0338
RRIRCRPPRLPRPRPRPWKNPRP	0.0137
RRIRARPPRLPRPRPRPKWRPRP	0.176
RRIRWRPPRLPRPRPRPYRRPRP	-0.0183
RRIRQRPPRLPRPRPRPTMGPRP	-0.0283
RRIRKRPPRLPRPRPRPFACPRP	-0.0138
RRIRVRPPRLPRPRPRPWGEPRP	0.136
RRIRQRPPRLPRPRPRPALWPRP	0.144
RRIRLRPPRLPRPRPRPCVSPRP	-0.108
RRIRPRPPRLPRPRPRPIQWPRP	0.0833
RRIRQRPPRLPRPRPRPKMNPRP	-0.328
RRIRIRPPRLPRPRPRPGYGPRP	-0.309
RRIRYRPPRLPRPRPRPASPPRP	-0.161
RRIRLRPPRLPRPRPRPLAVPRP	0.139
RRIRPRPPRLPRPRPRPNSKPRP	-0.557
RRIRMRPPRLPRPRPRPVTHPRP	0.0493
RRIRTRPPRLPRPRPRPTMPPRP	-0.0706
RRIRGRPPRLPRPRPRPQKTPRP	-0.0351
RRIRPRPPRLPRPRPRPMIKPRP	-0.696
RRIRPRPPRLPRPRPRPEMHPRP	0.395
RRIRFRPPRLPRPRPRPVNFPRP	-0.39
RRIRSRPPRLPRPRPRPSIVPRP	-0.525
RRIRSRPPRLPRPRPRPAKQPRP	0.134
RRIRARPPRLPRPRPRPWGHPRP	0.0337
